From US20160024159A1 come the findings set out here.

Test in all cases: cell-based or functional assay
Experiment [1] deals with human voltage-gated sodium channel Nav1.4 (human) (UniProt P35499).
The target in experiment [2] is human voltage-gated sodium channel Nav1.7 (human) (UniProt Q15858).
Experiment [3] concerns the target human voltage-gated sodium channel Nav1.5 (human) (UniProt Q14524).
Experiment [4] has as its target human voltage-gated sodium channel Nav1.3 (human) (UniProt Q9NY46).
Experiment [5] deals with human Nav1.7 voltage-gated sodium channel (human) (UniProt Q15858).
Experiment [6] concerns the target TTX-resistant Nav channels in mouse DRG neurons.
In experiment [7] the target is TTX-sensitive Nav channels in mouse DRG neurons.
In experiment [8] the target is human Nav1.5 voltage-gated sodium channel (human) (UniProt Q14524).
Experiment [9] has as its target human Nav1.8 voltage-gated sodium channel (human) (UniProt Q9Y5Y9).
The target in experiment [10] is hNav1.7 channels in HEK293 cell (human) (UniProt Q15858).

“And” between values parts separate entries of the source, which are not always exact repeats. Equal values may be shown once.

human voltage-gated sodium channel Nav1.3 (human), sequence (Q9NY46 whole entry): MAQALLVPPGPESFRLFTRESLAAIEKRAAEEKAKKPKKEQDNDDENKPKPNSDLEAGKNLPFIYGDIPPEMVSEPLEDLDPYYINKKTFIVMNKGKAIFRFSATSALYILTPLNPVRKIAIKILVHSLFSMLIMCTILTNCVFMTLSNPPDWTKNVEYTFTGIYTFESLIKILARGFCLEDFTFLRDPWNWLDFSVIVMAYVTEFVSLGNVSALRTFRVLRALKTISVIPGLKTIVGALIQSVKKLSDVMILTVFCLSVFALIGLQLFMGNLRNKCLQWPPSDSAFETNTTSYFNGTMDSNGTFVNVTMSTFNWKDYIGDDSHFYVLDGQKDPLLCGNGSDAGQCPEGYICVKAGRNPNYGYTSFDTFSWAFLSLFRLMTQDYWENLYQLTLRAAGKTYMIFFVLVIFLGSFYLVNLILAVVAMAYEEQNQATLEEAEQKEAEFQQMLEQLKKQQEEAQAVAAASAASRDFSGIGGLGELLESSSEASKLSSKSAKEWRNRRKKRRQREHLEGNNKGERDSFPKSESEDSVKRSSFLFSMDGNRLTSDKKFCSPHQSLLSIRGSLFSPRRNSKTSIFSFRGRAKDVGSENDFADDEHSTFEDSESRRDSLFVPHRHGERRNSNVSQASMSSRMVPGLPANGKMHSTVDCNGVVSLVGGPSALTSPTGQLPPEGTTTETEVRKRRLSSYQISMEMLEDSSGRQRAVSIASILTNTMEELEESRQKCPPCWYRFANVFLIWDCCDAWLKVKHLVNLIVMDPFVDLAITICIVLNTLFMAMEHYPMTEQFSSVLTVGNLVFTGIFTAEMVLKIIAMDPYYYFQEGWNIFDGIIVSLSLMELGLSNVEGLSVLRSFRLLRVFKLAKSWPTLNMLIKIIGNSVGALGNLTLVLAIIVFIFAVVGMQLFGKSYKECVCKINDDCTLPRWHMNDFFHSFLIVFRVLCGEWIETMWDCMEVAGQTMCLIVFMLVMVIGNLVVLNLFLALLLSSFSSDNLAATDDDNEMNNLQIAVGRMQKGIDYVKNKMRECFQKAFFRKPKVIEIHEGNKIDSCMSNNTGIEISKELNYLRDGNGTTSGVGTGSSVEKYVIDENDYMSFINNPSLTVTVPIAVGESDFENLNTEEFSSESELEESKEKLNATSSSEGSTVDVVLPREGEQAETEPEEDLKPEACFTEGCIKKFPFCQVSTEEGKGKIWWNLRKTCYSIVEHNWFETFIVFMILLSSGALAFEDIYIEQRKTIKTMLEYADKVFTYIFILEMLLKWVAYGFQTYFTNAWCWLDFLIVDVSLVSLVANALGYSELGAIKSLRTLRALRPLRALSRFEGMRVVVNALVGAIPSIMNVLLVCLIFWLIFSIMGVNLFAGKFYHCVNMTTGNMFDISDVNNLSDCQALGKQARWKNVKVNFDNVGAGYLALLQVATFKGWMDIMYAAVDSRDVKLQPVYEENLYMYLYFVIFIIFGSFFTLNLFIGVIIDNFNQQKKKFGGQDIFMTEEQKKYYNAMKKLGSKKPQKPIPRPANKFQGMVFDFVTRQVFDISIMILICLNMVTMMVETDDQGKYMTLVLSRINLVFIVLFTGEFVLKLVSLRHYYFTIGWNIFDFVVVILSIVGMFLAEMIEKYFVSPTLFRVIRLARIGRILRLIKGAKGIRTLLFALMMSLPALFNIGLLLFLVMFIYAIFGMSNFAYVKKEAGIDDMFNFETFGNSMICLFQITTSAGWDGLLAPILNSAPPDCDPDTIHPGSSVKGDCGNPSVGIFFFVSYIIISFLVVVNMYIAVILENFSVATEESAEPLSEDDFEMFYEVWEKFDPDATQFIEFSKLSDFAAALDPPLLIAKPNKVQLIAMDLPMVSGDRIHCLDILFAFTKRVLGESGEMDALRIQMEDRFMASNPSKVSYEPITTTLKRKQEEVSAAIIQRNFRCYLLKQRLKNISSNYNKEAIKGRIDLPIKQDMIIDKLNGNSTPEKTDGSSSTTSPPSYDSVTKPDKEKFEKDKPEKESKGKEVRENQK
human voltage-gated sodium channel Nav1.5 (human), sequence (Q14524 whole entry): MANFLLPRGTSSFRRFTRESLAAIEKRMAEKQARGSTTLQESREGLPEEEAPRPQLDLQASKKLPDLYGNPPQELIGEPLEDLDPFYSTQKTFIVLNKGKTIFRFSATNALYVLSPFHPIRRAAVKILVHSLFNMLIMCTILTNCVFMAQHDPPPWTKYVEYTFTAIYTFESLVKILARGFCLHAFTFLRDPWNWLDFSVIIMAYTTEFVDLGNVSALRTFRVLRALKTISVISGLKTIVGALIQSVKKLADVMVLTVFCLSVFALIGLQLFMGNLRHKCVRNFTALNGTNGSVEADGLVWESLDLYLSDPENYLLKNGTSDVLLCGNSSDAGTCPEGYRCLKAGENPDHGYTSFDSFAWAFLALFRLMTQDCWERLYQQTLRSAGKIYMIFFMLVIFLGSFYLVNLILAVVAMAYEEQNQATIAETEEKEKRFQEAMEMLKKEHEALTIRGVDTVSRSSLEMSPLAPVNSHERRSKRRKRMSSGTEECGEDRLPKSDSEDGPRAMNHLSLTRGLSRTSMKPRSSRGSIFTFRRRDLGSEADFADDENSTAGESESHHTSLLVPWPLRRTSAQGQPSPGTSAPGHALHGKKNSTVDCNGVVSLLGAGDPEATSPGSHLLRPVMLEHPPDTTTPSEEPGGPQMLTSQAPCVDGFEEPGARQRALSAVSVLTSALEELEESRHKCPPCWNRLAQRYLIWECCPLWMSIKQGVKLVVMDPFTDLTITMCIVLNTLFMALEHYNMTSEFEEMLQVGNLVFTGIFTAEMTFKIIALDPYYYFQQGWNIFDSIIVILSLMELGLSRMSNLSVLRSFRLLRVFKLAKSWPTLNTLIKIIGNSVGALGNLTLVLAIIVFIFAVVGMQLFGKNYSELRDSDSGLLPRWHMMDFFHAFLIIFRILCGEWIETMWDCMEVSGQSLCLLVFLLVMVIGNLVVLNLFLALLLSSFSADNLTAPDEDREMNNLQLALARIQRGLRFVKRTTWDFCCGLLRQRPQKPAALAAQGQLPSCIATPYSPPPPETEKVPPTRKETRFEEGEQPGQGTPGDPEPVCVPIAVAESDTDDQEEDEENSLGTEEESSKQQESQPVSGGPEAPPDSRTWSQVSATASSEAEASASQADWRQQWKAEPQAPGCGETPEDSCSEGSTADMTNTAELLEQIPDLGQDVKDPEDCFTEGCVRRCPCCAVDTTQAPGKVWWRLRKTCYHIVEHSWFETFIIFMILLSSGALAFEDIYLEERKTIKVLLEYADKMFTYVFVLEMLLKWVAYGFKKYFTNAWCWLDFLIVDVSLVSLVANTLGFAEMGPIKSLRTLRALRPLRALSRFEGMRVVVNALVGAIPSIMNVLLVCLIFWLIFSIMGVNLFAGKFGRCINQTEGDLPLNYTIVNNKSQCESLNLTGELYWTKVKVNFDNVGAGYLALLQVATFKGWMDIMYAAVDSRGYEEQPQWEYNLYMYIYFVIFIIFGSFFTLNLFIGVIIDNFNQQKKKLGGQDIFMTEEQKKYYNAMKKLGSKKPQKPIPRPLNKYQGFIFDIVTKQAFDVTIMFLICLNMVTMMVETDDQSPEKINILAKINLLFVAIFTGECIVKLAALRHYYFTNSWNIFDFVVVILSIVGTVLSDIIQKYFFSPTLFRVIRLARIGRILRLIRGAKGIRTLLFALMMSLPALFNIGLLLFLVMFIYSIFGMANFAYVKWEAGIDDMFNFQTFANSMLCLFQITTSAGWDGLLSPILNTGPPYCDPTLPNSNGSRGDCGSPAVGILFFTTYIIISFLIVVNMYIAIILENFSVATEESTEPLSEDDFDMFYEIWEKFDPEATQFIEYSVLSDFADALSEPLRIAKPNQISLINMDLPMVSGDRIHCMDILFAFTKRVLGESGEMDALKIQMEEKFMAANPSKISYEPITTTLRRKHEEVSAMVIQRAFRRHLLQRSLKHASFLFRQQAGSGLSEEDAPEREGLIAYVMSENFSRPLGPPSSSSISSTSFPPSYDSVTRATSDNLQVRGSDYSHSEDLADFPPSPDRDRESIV

Turning to JzTx-45 (peptide), the IC50 (IonWorks Quattro) in experiment [1] was 2400 nM; in [2] it was 84 nM; in experiment [3], > 5000 nM; in experiment [4] it was 1800 nM.
The corresponding values for JzTx-46 (peptide) are > 5000 nM, 330 nM, > 5000 nM and 5000 nM.
As to JzTx-V(1-29) (peptide), the IC50, IonWorks Quattro electrophysiology is 0.2 µM in experiment [1], 0.04 µM in experiment [2] and > 7 µM in experiment [3]. Moreover, the IC50 (IonWorks Quattro) in experiment [2] is 5 nM and 6 nM; in [3] it was 3000 nM and 3500 nM; in [4], 80 nM and 100 nM. The WCPC Mean IC50, fully non-inactivated in experiment [5] is 0.141 nM; in [6], > 1000 nM; in experiment [7], 75 nM; in experiment [8], 882 nM; in [9] it was 810 nM. Further, the WCPC Mean IC50, partially inactivated is 0.162 nM in [5]; > 1000 nM in experiment [6]; 18 nM in [7]; 426 nM in experiment [8]; 530 nM in [9].
Take JzTx-V(1-29)-FreeAcid (peptide): the IC50 (IonWorks Quattro) was 610 nM in [1], 170 nM in experiment [2], > 5000 nM in [3] and 780 nM in experiment [4]. Besides, the PX hNav1.7 Tonic IC50 in experiment [2] came to 13.1 nM.
With “[Phe6,Atz(2 kDa EtO-PEG*-[Phe6,Atz13*]GpTx-1(1-34)1)13]GpTx-1(1-34)”, the Nav1.7 WCPC IC50 in experiment [10] is 0.58 nM.
